This note sets out measurements from article PMC13507078, “The BRCT domain enhances DNA binding and catalytic efficiency of fungal PARPs”.

The target of series [1] is T1, Af-PARP1 S241Q (Aspergillus fumigatus, UniProt B0Y3N8 1-23+35-688, S252Q;internal_change). The series is described as follows: EMSA; mutation did not restore binding; EMSA: 50 mM HEPES pH 8, 100 mM NaCl, 10% glycerol, 10 mM DTT, 45 min at 4 °C, 7% native PAGE 0.5x TBE; plasmid EMSA: 20 mM Tris-HCl pH 8, 30 mM NaCl, 1 mM EDTA, 1 mM DTT; CD: 20 mM HEPES pH 8, 100 mM NaCl, 0.5 mM TCEP, 2% glycerol. As to conditions: protein: recombinant; tags: His; hairpin, blunt end. In general terms: Mobility shift assays separate free from complexed probe on a gel.

The target of a further series is Af-PARP1 K52/60A (Aspergillus fumigatus, UniProt B0Y3N8 1-23+35-688, K63A;K71A;internal_change). The series is described as follows: EMSA; EMSA: 50 mM HEPES pH 8, 100 mM NaCl, 10% glycerol, 10 mM DTT, 45 min at 4 °C, 7% native PAGE 0.5x TBE; plasmid EMSA: 20 mM Tris-HCl pH 8, 30 mM NaCl, 1 mM EDTA, 1 mM DTT; CD: 20 mM HEPES pH 8, 100 mM NaCl, 0.5 mM TCEP, 2% glycerol. Particulars: protein: recombinant; tags: His; dumbbell of two hairpins, nick.

The next series deals with Af-PARP1 K56A (Aspergillus fumigatus, UniProt B0Y3N8 1-23+35-688, K67A;internal_change). The description is as above. Particulars: protein: recombinant; tags: His; dumbbell of two hairpins, nick.
The next series concerns the target Af-PARP1 Q22A (Aspergillus fumigatus, UniProt B0Y3N8 1-23+35-688, Q22A;internal_change). The series is described as above. As to conditions: protein: recombinant; tags: His; dumbbell of two hairpins, nick.
A further series addresses Af-PARP1 E53A (Aspergillus fumigatus, UniProt B0Y3N8 1-23+35-688, E64A;internal_change). The description is as above. Particulars: protein: recombinant; tags: His; dumbbell of two hairpins, nick.
The target of another series is Af-PARP1 K60A (Aspergillus fumigatus, UniProt B0Y3N8 1-23+35-688, K71A;internal_change). Described as above. As to conditions: protein: recombinant; tags: His; dumbbell of two hairpins, nick.
In a further series the target is Af-PARP1 K52A (Aspergillus fumigatus, UniProt B0Y3N8 1-23+35-688, K63A;internal_change). The series is described as above. Particulars: protein: recombinant; tags: His; dumbbell of two hairpins, nick.
A further series has as its target Af-PARP1 S14A (Aspergillus fumigatus, UniProt B0Y3N8 1-23+35-688, S14A;internal_change). The series is described as above. As to conditions: protein: recombinant; tags: His; dumbbell of two hairpins, nick.
Series [2] addresses T1, Af-PARP1 S241Q. The series is described as above. As to conditions: protein: recombinant; tags: His; described as blunt duplex; printed strands not exactly complementary.

Regarding GGAAGTTCTTTTGAACTTCC (structured_DNA, 5'-phosphate) [DNA-5 (5'P blunt)], the binding result in the series with Af-PARP1 S241Q [1] is reported as “no binding”.

Turning to CGGTCGATCGTAAGATCGACCGGCGCTGGAGCTTGCTCCAGCGC (structured_DNA, 5'-phosphate) [DNA-1 (5'P nick)], the binding result with Af-PARP1 K52/60A, in the series with Af-PARP1 K56A, with Af-PARP1 Q22A, with Af-PARP1 E53A, with Af-PARP1 K60A and in the series with Af-PARP1 K52A was “binds” in each case. Moreover, the binding result with Af-PARP1 S14A was “binds”.

B1: DNA-16/17 (5'P duplex) (dsDNA)
DNA 1: GACGACCCGGACACA
DNA 2: TGTGCTCCGGGTCGTC
modifications: 5'-phosphate on DNA-16
Regarding B1, the binding result with Af-PARP1 S241Q [2] is on record as “binds”.
